{"source": "paper PMC9371665", "target": "TnsB transposase of the type V-K CAST element from Scytonema hofmanni (ShCAST), full length (Scytonema hofmanni)", "assay": "cryo-EM structure; TnsB strand-transfer complex: strand-transfer DNA and purified TnsB mixed 1:6, 26 mM Hepes pH 7.5, 5 mM Tris-HCl pH 7.5, 20 mM KCl, 100 mM NaCl, 0.2 mM MgCl2, 15 mM MgOAc2, 37 °C 40 min, then size-exclusion chromatography; C2 symmetry imposed; 3.7 Å", "data": [{"substance": "TnsB transposase of the type V-K CAST element from Scytonema hofmanni (ShCAST), full length (enzyme)", "values": [{"measurement": "stoichiometry N", "value": 4}]}]}
